Experimental data reported in PMC6744678.

Biological target: Flag-CCDC74B wild-type (in HeLa cells) (human)
Test: cross-linking; HeLa cells expressing Flag-CCDC74B treated with 1 mM disuccinimidyl suberate (DSS) in DMSO for 30 min; anti-Flag Western blot

stoichiometry N: 2
Substance: Flag-CCDC74B wild-type (in HeLa cells) (natural protein)
